Measurements reported in article PMC2113854.
One block for each substance: values may come before it.

Tests used:
[1] = biological target: EGF/TGF-alpha receptor of normal rat kidney (NRK) cells (170-kD receptor species) (rat (endogenous in NRK)); test: radioligand binding
[2] = biological target: EGF/TGF-alpha receptor of A431 cells (human (endogenous in A431)) (UniProt P00533); test: radioligand binding

125I-TGF-alpha bound with 66 nM EGF (NRK membranes) (fmol/mg protein) [1]: 1.6
125I-TGF-alpha bound with 66 nM EGF (A431 membranes) (fmol/mg protein) [2]: 140
Substance: mouse submaxillary gland epidermal growth factor (native, unlabeled EGF) (ligand)

specific binding at 0.3 nM ligand, monolayers not treated with TGF-beta (Fig. 2) [1]: 785 cpm/well
Substance: 125I-labeled mouse submaxillary gland epidermal growth factor (125I-EGF) (ligand)

125I-TGF-alpha bound with 66 nM TGF-alpha (NRK membranes) (fmol/mg protein) [1]: 1.2
Substance: transforming growth factor-alpha (native, unlabeled TGF-alpha) (from UniProt P01134 39-88) (ligand)

125I-TGF-alpha bound with 66 nM TGF-beta (NRK membranes) (fmol/mg protein) [1]: 5.6
125I-TGF-alpha bound with 330 nM TGF-beta (NRK membranes) (fmol/mg protein) [1]: 5.6
125I-TGF-alpha bound, no competing ligand (NRK membranes) (fmol/mg protein) [1]: 5.4
Kd, high-affinity sites [1]: 0.2 to 0.3 nM
Kd, low-affinity sites [1]: 2.7 to 2.9 nM
specific binding at 0.3 nM ligand, cells not treated with TGF-beta (Fig. 1A) [1]: 810 cpm/well
Substance: 125I-labeled transforming growth factor-alpha (125I-TGF-alpha) (from UniProt P01134 39-88) (ligand)
